Test results published in the supplement of paper PMC9170038.

Legend:
[1] = test system: MS2 coat protein; test: apparent KD of MS2 coat protein, switch ON state; designed switch direction (-1 OFF switch, 1 ON switch): -1; higher = weaker reporter binding; conditions: FMN input: 0 or 200 uM; Eterna round: R93 (includes R88 designs)
Method in brief: (§1)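 Normalised binding curves from single clusters were fitted, and the median fit for each design is given as apparent KD. The clusters held designed RNA switches transcribed on-chip from Illumina sequencing clusters. These were titrated with SNAP-549-labelled MS2 coat protein (twofold steps from 0.7 or 1.5 nM to 3 µM, 0.8–1.5 h to 10–20 min per step) in 100 mM Tris-HCl pH 7.5, 80 mM KCl, 4 mM MgCl2, without or with constant ligand.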

[2] = test system: MS2 coat protein; test: apparent KD of MS2 coat protein, switch OFF state (with FMN for OFF switches, without FMN for ON switches); designed switch direction (-1 OFF switch, 1 ON switch): -1; higher = weaker reporter binding; conditions: FMN input: 0 or 200 uM; Eterna round: R93 (includes R88 designs)
Method in brief: as §1

Row | Sequence | apparent KD of MS2 coat protein [1] [nM] | apparent KD of MS2 coat protein [2] [nM]
1 | AGCUAGUCAGGAUAUACGAACAUGUCAUAAGACGUGAAGGGACAUGAGGAUCACCCAUGUAGAAGGGACUAGCA [74%, Web mod - With 1 more U's] | 36.7 | 139
2 | AGCUAGUGAGGAUAUACGAACAUGUCAACAGACUGUAAGGGACAUGAGGAUCACCCAUGUAGAAGGCACUAGCA [Diamond 56] | 59.4 | 174
3 | AGCUGGAGAGGAUAUACGUAGGAAAAAAAAGUCUGAUCCCUACAUGAGGAUCACCCAUGUAGAAGGCUCUGGCA [Ex2 Design 161: Sub-opt 25] | 63.5 | 63.6
4 | AGGAAACAUGAGGAUCACCCAUGUAAGGAUAUGUGAAAGAAAAGAAAAGAAAGAAGAAACAGAAGGUACAAGAA [Qa'a] | 46.3 | 42.4
5 | AGGAAACAUGAGGAUCACCCAUGUAAGGAUAUGUGAAAGAAAAGAAAAGAAAGAAGAAGCAGAAGGUACAAGAA [Anedjib] | 34.9 | 47.2
6 | AGGAAACAUGAGGAUCACCCAUGUCAGGAUAUAUGAAAGAAAAGAAAAGAAAGAAGAAGUAGAAGGGACAAGAA [Ka] | 29.8 | 29.9
7 | AGGAAACAUGAGGAUCACCCAUGUGAGGAUAUGAACGAAAAUAAAUAAAAAUAAAAGUUCAGAAGGCAUAAAAA [66%, Wbt, 4] | 30 | 35.6
8 | AGGAAACAUGAGGAUCACCCAUGUGAGGAUAUGAACGAAAUAAAAUAAAAAUAAAAGUUCAGAAGGCAUAAAAA [Mat - Exclusion 1 - Eli mod - D7] | 26.8 | 24.4
9 | AGGAAACAUGAGGAUCACCCAUGUUAGGAUAUGAACGAAAAUAAAUAAAAAUAAAAGUUCAGAAGGAACAAAAA [66%, Wbt, 18] | 27 | 41.9
10 | AGGCAGACAGGAUAUACUUGGGCAGCCAAUAUAAUAAUAUAACAUGAGGAUCACCCAUGUAGAAGGGUCAGAAA [JR_Exc002_Sub209] | 62.6 | 86.7
11 | AGGCUCCUAGGAUAUACUGGCUGGCCUCCACAAAAGAAAAUACAUGAGGAUCACCCAUGUAGAAGGAGGAGUGG [Geesar] | 19.3 | 22.7
12 | AGGGAGUGAGGAUAUACGAAAAAAAAACAACGAAAAAAAGAGUAGAAGGCACAUGAGGAUCACCCAUGUAAGAA [milkweed 14] | 44.5 | 25.3
13 | AGGGAGUGAGGAUAUCCGAAAAAAAAACAACGAAAAAAAGAGGAGAAGGCACAUGAGGAUCACCCAUGUAAGAA [milkweed 15] | 40.7 | 28.6
14 | AGGUACCUAGGAUAUACAUGAGGAUCACCCAUGUCACAAAUAAAACACAGGUAUCCUGGUAGAAGGAGGAACAA [Veinle] | 24.1 | 36.5
15 | AGUCAUACAGGAUAUACAUGAGGAUCACCCAUGUAAAUCCUAAAAAGGUGAUCCUCAUGUAGAAGGGUAUGACA [EX3 219: Super Stable 19] | 21.8 | 17.7
16 | AGUCAUACAGGAUAUACAUGAGGAUCACCCAUGUAUAUCCAAAAAAAAAAAAAAACAUGUAGAAGGGUAUGACA [EX3 207: Super Stable 7] | 10.8 | 7.41
17 | AGUCAUACAGGAUAUACAUGAGGAUCACCCAUGUAUAUCCAAAAAAAGUGAUCCUCAUGUAGAAGGGUAUGACA [EX3 203: Super Stable 3] | 12 | 8.92

Row | Sequence | apparent KD of MS2 coat protein [1] [nM] | apparent KD of MS2 coat protein [2] [nM]
18 | AGUCAUACAGGAUAUACAUGAGGAUCACCCAUGUUUAUCCUAAAAUAAAAAAAAACAUGUAGAAGGGUAUGACA [EX3 215: Super Stable 15] | 15.1 | 14.1
19 | AGUCGGCGAGGAUAUACAUGAGGAUCACCCAUGUGAGAGAAAAAAGUGAGCAAGAAAAGUAGAAGGCGCUGACA [JL Lego Mod 2] | 54.2 | 154
20 | AGUCGGCGAGGAUAUACAUGAGGAUCACCCAUGUGAGAGAUAAAAGUGAGUUAGACAAGUAGAAGGCGCUGACA [JL Lego Mod 9] | 44.3 | 480
21 | AGUCUGAGAGGAUAUACAUGGAAAAAAAAAGUAAGAUCCCUACAUGAGGAUCACCCAUGUAGAAGGCUCUGACA [Ex2 Design 144: Sub-opt 8] | 41.7 | 22.7
22 | AGUUGGCGAGGAUAUACAUGAGGAUCACCCAUGUAAAAUAAAUAAAAAAUAGGGAAAAGUAGAAGGCGCUGACA [73%, Moding Norbert Elias, 13] | 48.4 | 96.3
23 | AGUUGGCGAGGAUAUACAUGAGGAUCACCCAUGUGAGAGAAAAAAAAGAGAAAAAAAAGUAGAAGGCGCUGACA [Mat - Exclusion 3 - Lego mod - D42] | 42.6 | 130
24 | AGUUGGCGAGGAUAUACAUGAGGAUCACCCAUGUGAGAGAAAAAAGUGAGAAAGAAAAGUAGAAGGCGCUGACC [salish99-ex3-07] | 58.3 | 103
25 | AGUUGGCGAGGAUAUACAUGAGGAUCACCCAUGUGAGAGAAAAAAGUGGAAAAGAAAAGUAGAAGGCGCUGACA [Mat - Exclusion 3 - Lego mod - D90] | 39.4 | 119
26 | AUAAAACAUGAGGAUCACCCAUGUCAGGAUAUACGAUAUUAAAUUUAAUAUAUUUAUAGUAGAAGGGACAAAUA [High Five] | 31.6 | 37.1
27 | AUAAAACAUGAGGAUCACCCAUGUGAGGAUAUCCAAAAAGAAAGAAAAAAAAAAAAAAGGAGAAGGCACAAUAA [Amethyst 46] | 67.6 | 46.7
28 | AUAAAACAUGAGGAUCACCCAUGUGAGGAUAUGCGAAACAAACAAACAAACAAACAAAGCAGAAGGCACAAUAA [Amethyst 9] | 22.6 | 24.6
29 | AUAAAACAUGAGGAUCACCCAUGUGAGGAUAUGCGAAAGAAAGAAAGAAAGAAAGAAAGCAGAAGGCACAAUAA [Amethyst 42] | 30.1 | 32.6
30 | AUAAACGGAGGAUAUACAUGAGGAUCACCCAUGUAAAUAAAUAAAAGUUCCUCAAUAAGUAGAAGGUCGAAUAA [JR_Exc003_Sub011] | 12.8 | 13
31 | AUAAAGCGAGGAUAUACAUGAGGAUCACCCAUGUAAAUAAAUAGGAGAGCCACAAUAAGUAGAAGGUGUAAUAA [JR_Exc003_Sub009] | 62.6 | 73.3
32 | AUAAAGUCAGGAUAUGUAAGAAUAACGAAAGUUAUAAAGAAACAGAAGGGACAUGAGGAUCACCCAUGUAAAAU [Ex 4 #3] | 43.1 | 31
33 | AUAAAGUGAGGAUAUACAUGAGGAUCACCCAUGUGAAAGUCUAAAAAAAUGACAAAAAGUAGAAGGCACAAAUA [Mai Tai2 ala mod Fisker] | 18.8 | 23.5
34 | AUAAGUCGAGGAUAUACGAAAAGCUAGCGAAAGCUAGCGGGACAUGAGGAUCACCCAUGUAGAAGGCGACAAUA [Tetraloop hairpin BlockHead... 61% 5] | 28.4 | 57
